Measured values: publication PMC7148561
“And” between values parts separate entries of the source, which are not always exact repeats. Equal entries are not always repeated.

How the values were obtained:
[1] = target: hHsp70 (human Hsp70A1), variant not told for the experiment (human) (UniProt P0DMV8); assay: SEC
[2] = target: hHsp70 NBD–SBDβ labeling variant E315C/I427C (human) (UniProt P0DMV8); assay: FRET or BRET
[3] = target: the two labeling variants of hHsp70 containing the T204A mutation; assay: FRET or BRET
[4] = target: Cy3-labeled hHsp70 (E315C/I427C or I427C/K559C; variant not told for the printed rate); assay: FRET or BRET
[5] = target: the two labeling variants of hHsp70 in the ATP-bound state (direct binding of JGF); assay: FRET or BRET

Substance	stoichiometry N (hHsp70 molecules per Hdj1 dimer) [1]	kon [2]	rate constant of direct binding [3]	apparent rate constant of the fast binding phase [4]	apparent rate constant of direct binding [5]
Hdj1, human type II Hsp40 homolog, full-length (from UniProt P25685 1-340) (natural protein)	2	350000 M⁻¹ s⁻¹	2.5 s⁻¹ and 1.5 s⁻¹	1.2 s⁻¹	
J+G/F-rich segment (JGF) of Hdj1, residues 1–141 (from UniProt P25685 1-141) (domain or fragment)					0.7 s⁻¹ and 1.6 s⁻¹
